Experiments:
[1] = molecular target: MxiH (Shigella flexneri) (UniProt P0A223); test: avidin labelling with negative-stain EM; needle complexes with biotinylated Avitag proteins held on Ni-NTA beads by His6-MxiG, avidin in 300 to 500 molar excess overnight at 4°C, washed, eluted, negative stain; avidin counted on the needle tips
[2] = molecular target: IpaD (Shigella flexneri) (UniProt P18013); test: negative-stain EM three-dimensional reconstruction; tip complex and needle of purified needle complexes from the ΔipaB strain; single particle and helical image analysis, 25 Å; complex assembled on the bacteria
[3] = molecular target: IpaB (Shigella flexneri); test: avidin labelling with negative-stain EM; needle complexes with biotinylated Avitag proteins held on Ni-NTA beads by His6-MxiG, avidin in 300 to 500 molar excess overnight at 4°C, washed, eluted, negative stain; avidin counted on the needle tips
[4] = molecular target: IpaD (Shigella flexneri) (UniProt P18013); test: negative-stain EM three-dimensional reconstruction; tip complex and needle of purified needle complexes from the wild-type strain; the half of the images with the lower cross-correlation to the ΔipaB map, 24 Å; complex assembled on the bacteria
[5] = molecular target: IpaD (Shigella flexneri) (UniProt P18013); test: negative-stain EM three-dimensional reconstruction; tip complex and needle of needle complexes purified on Ni-NTA by His6-MxiG from mxiH mutant strains (Q51A, P44A, P44A+Q51A), 21-24 Å; Q51A map refined to 19 Å; complex assembled on the bacteria
[6] = molecular target: IpaD_avitag (Shigella flexneri) (UniProt P18013); test: avidin labelling with negative-stain EM; needle complexes with biotinylated Avitag proteins held on Ni-NTA beads by His6-MxiG, avidin in 300 to 500 molar excess overnight at 4°C, washed, eluted, negative stain; avidin counted on the needle tips
[7] = molecular target: the molecule itself; test: cross-linking; bacteria of otherwise wild-type background treated with 30 uM BM(PEG)2, quenched; crudely purified needle complexes, Western blot with anti-IpaD and anti-IpaB; no bands with the oxidiser; pattern unchanged on addition of Congo red

Chain of MxiH (Shigella flexneri) (P0A223 whole entry): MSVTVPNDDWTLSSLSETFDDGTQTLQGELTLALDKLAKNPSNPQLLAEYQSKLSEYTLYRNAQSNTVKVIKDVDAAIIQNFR

Molecule IpaB_avitag (natural protein) has a percent of needle tips labelled with at least one avidin [1] of 2.5%.

Work on “IpaD (from UniProt P18013 1-332) (natural protein)” yielded a stoichiometry N [2] of 5, a stoichiometry N [3] of 4 and a stoichiometry N [4] of 4. It also gave a stoichiometry N [5] of 4.

“IpaD_avitag (from UniProt P18013 1-332) (natural protein)” showed a stoichiometry N [6] of 4 and a percent of needle tips labelled with at least one avidin [1] of 25%.

B1: IpaD C322S/S173C/K258C (natural protein)
chain: MNITTLTNSISTSSFSPNNTNGSSTETVNSDIKTTTSSHPVSSLTMLNDTLHNIRTTNQALKKELSQKTLTKTSLEEIALHSSQISMDVNKSAQLLDILSRNEYPINKDARELLHSAPKEAELDGDQMISHRELWAKIANSINDINEQYLKVYEHAVSSYTQMYQDFSAVLSCLAGWISPGGNDGNSVKLQVNSLKKALEELKEKYKDKPLYPANNTVSQEQANKWLTELGGTIGKVSQKNGGYVVSINMTPIDNMLCSLDNLGGNGEVVLDNAKYQAWNAGFSAEDETMKNNLQTLVQKYSNANSIFDNLVKVLSSTISSSTDTDKLFLHF
notes: IpaD, Shigella flexneri, with the intrinsic cysteine 322 changed to serine and two cysteines put in (helix α3 and helix α6); also called ipaDS173C/K258C; source: S. flexneri ΔipaD, ΔipaB ΔipaD or ΔmxiH ΔipaD background, from pUC18 ipaD_(C322S); on needle tips, in sheared needles or crudely purified needle complexes
With B1 the “stoichiometry N” value [7] was 5.
